Article PMC8893199, “A Cysteine Variant at an Allosteric Site Alters MIF Dynamics and Biological Function in Homo- and Heterotrimeric Assemblies” (Frontiers in Molecular Biosciences, 2022)

Target: the molecule itself
Experiment: AUC; sedimentation velocity, Y99C MIF homotrimer at three loading concentrations, PBS, 20°C, 50,000 rpm, c(s) analysis in SEDFIT

B1: Y99C MIF homotrimer (natural protein, human, UniProt P14174 1-115, looked up)
chain: MPMFIVNTNVPRASVPDGFLSELTQQLAQATGKPPQYIAVHVVPDQLMAFGGSSEPCALCSLHSIGKIGGAQNRSYSKLLCGLLAERLRISPDRVYINYCDMNAANVGWNNSTFA
notes: untagged; Made by site-directed mutagenesis of the WT MIF cDNA in pET-11b (construct from Pantouris et al., 2018); also called Y99C variant; homotrimeric Y99C MIF; source: E. coli BL21-Gold (DE3), pET-11b, purified (Q-Sepharose and SP flow-through, Superdex 75)
- stoichiometry N: 3
